The target of test [1] is FnBPB (163-480), FnBPB_(N2N3) (S. aureus). As to the kind of experiment: ELISA; FnBPA_(N2N3) or FnBPB_(N2N3) coated on microtiter wells (200 ng/well, 0.1 M sodium carbonate pH 9.5), increasing concentrations of Plg for 1 h; bound Plg detected with rabbit anti-Plg and HRP goat anti-rabbit IgG; Kd from the Plg saturation kinetics.
Test [2] addresses FnBPA (194-511), FnBPA_(N2N3) (S. aureus) (UniProt P14738). The description is as above.
Test [3] concerns the target full-length FnBPB on S. aureus FnBPB^(+) cells (S. aureus strain 8325-4). As to the kind of experiment: single-molecule force spectroscopy (AFM); as a7, in the presence of 0.1 mg ml^-1 Fg in the AFM chamber.
For test [4] the target is unchanged. As to the kind of experiment: single-molecule force spectroscopy (AFM); Plg on the AFM tip (PEG-benzaldehyde linker) against living S. aureus cells trapped in porous membranes; PBS, 20°C, contact time 250 ms, applied force 250 pN, speed 1,000 nm s^-1; without Fg.
Test [5] has the same target. As to the kind of experiment: single-cell force spectroscopy (AFM); as a5, in the presence of 0.1 mg ml^-1 Fg in the AFM chamber.
Test [6] has the same target. As to the kind of experiment: single-cell force spectroscopy (AFM); single living S. aureus cell on a polydopamine-coated colloidal cantilever against Plg coupled to a gold substrate (NHS/EDC); PBS, 20°C, contact time 1 s, applied force 250 pN, speed 1,000 nm s^-1; without Fg.
A further test concerns the target human plasminogen (Plg). The experiment in a line: ELISA. Also on record: dose or concentration left out as unconfirmed. The following applies: FnBPB proteins immobilized on microtiter wells, read off a plot.
Test [7] addresses full-length FnBPB on S. aureus FnBPB^(+) cells (S. aureus strain 8325-4). As to the kind of experiment: single-molecule force spectroscopy (AFM); Fg tips against living FnBPB^(+) cells; PBS, contact time 100 ms, applied force 250 pN, speed 1,000 nm s^-1.

Several values for one entry are separate records, joined by “and”; a condition that tells them apart may be missing. Identical values can stand only once.

In test [1], “human plasminogen (Plg) (natural protein)” registered a Kd of 380 nM. Besides, the dissociation constant (Kd) in test [2] amounted to 600 nM. In test [3], the binding force (cell 1, with 0.1 mg/ml Fg) amounted to 898 pN; the binding force (cell 2, with 0.1 mg/ml Fg) was determined as 619 pN; the binding force (cell 3, with 0.1 mg/ml Fg) is 561 pN; the binding probability (cell 1, with 0.1 mg/ml Fg) was 81%. Moreover, in test [3], the binding probability (cell 2, with 0.1 mg/ml Fg) came to 79% and the binding probability (cell 3, with 0.1 mg/ml Fg) worked out at 73%. For the same substance, in test [4], the adhesion force (single molecule) was determined as 188 pN, the adhesion frequency stood at 40%, the binding force (cell 1) turned out to be 175 pN and the binding force (cell 2) worked out at 154 pN. In test [4], this substance gave a binding force (cell 3) of 176 pN, a binding probability (cell 1) of 67%, a binding probability (cell 2) of 24% and a binding probability (cell 3) of 42%. Besides, the mean adhesion force (single cell, 3 cells, with 0.1 mg/ml Fg) in test [5] turned out to be 2100 pN. Also, in test [6], the adhesion force (single cell, cell 1) worked out at 556 pN; the adhesion force (single cell, cell 2) was 249 pN; the adhesion force (single cell, cell 2, a few curves) turned out to be 1630 pN; the adhesion force (single cell, cell 3) was determined as 1600 pN. Further, in test [6], the maximum adhesion force (single cell, cells 2 and 3) is 1500 pN and 2000 pN; the mean adhesion force (single cell, 3 cells) turned out to be 775 pN.

As to “FnBPB (163-480), FnBPB_(N2N3) (from UniProt A0A0H2XKG3) N312A; F314A”, the response with human plasminogen (Plg) (+ Fg (black bar), saturating amounts of Fg, bound Plg detected with rabbit antibodies followed by HRP-con, parent: est. 1.5) turned out to be 1.5 A490nm; with human plasminogen (Plg) (- Fg (white bar), bound Plg detected with rabbit antibodies followed by HRP-conjugated goat anti-rabbit IgG, parent: est. 1.6), 1.5 A490nm.

Regarding “human fibrinogen (Fg) (from UniProt P02671 36-866; P02675 45-491; P02679 27-453) (complex)”, in test [7], the adhesion force (single molecule, cell 1) turned out to be 1970 pN; the adhesion force (single molecule, cell 2) is 1690 pN; the adhesion force (single molecule, cell 3) amounted to 1960 pN.

For the origin of these results see paper PMC5587908.
